Data taken from article PMC6764996.

Key:
[1] = target: full-length human DNA polymerase θ (Polθ) (human) (UniProt O75417); experiment: negative staining electron microscopy (single particles); 200 nM protein pre-incubated with 2 μM 26 nt ssDNA; 25 mM Tris-HCl pH 8.8, 1 mM DTT, 10 mM MgCl2, 2 mM ATP; 37 °C, 30 min; 2% uranyl acetate
[2] = target: full-length human DNA polymerase θ (Polθ) (human) (UniProt O75417); experiment: negative staining electron microscopy (single particles); 200 nM protein without ssDNA; 25 mM Tris-HCl pH 8.8, 1 mM DTT, 10 mM MgCl2, 2 mM ATP; 37 °C, 30 min; applied to lacey carbon grids, 2% uranyl acetate
[3] = target: full-length human DNA polymerase θ (Polθ) (human) (UniProt O75417); experiment: scanning force microscopy (volume measurements); 10 nM protein with 20 nM 26 nt ssDNA; 25 mM Tris-HCl pH 8.8, 30 mM NaCl, 10 mM MgCl2, 2 mM ATP, 0.01% NP-40, 1 mM DTT; 37 °C, 30 min; deposited on mica; volumes normalised to the monomer's volume

fold increase in large > 1000 Å multimers with ssDNA against without ssDNA [1]: 9 fold | percent of Polθ as large (> 1000 Å) multimers (without ssDNA) [2]: 3% | percent of Polθ as tetramers or larger (with ssDNA) [3]: 62%
Substance: full-length human DNA polymerase θ (Polθ), O75417 1-2590
